The assay has as its system cellular immune response against the antigen E7 de HPV-16. The experiment in a line: ELISPOT anti-IFN-γ of splenocytes of immunized mice. The format is in vivo, mice C57BL/6. To be noted: 30 μg s.c., 2 doses every 14 days, without adjuvant. On the procedure:
In order to evaluate the cellular immune response against the antigen E7 de HPV-16, 4 groups of 3 mice females C57BL/6, from 6 to 8 weeks of born, received 2 doses of immunogens. The group 1 was immunized with the 30 μg of the recombinant protein LALF-E7; group 2 with the 30 μg of the recombinant protein E7; group 3 with 8 μg of synthetic peptide LALF and group 4 with PBS. The immunizations were made of subcutaneous way in the flank of the animal with volumes of 0.2 mL and without adjuvant. Every 14 days were administered two doses. Seven days after the second immunization, the mice were sacrificed by break-up of the cervical and the splenocytes were removed aseptically for their later analysis in a test of ELISPOT anti-gamma interferon (anti-IFN-γ). The cellular suspensions of the animals by each group met in pool and they were homogenized smoothly. […]
The test for the determination of the IFN-γ secretion was made as described previously (Vazquez-Blomquist D. et al. (2002) Induction of a strong HIV-specific CD8+ T cell response in mice using a fowlpox virus vector expressing an HIV-1 multi-CTL-epitope polypeptide. Viral Immunol. 5(2):337-356). […] After this time, the surviving cells counted and were used for determinations of ELISPOT under the same conditions.
The results were expressed as a number of spot forming cells (SFC) per 10^6 splenocytes. […]

B1: LALF-E7: recombinant fusion of CPP LALF to E7 protein of HPV 16, cysteine per glycine in Rb site (SEQ ID N0. 9 y 10) (protein)
chain: MAEFHYRIKPTFRRLKWKYKGKFWKASHGDTPTLHEYMLDLQPETTDLYGYEQLNDSSEEEDEIDGPAGQAEPDRAHYNIVTFCCKCDSTLRLCVQSTHVDIRTLEDLLMGTLGIVCPICSQKPGSRAHHHHHH
modifications: Artificial Sequence Description Protein fusion CPP LALF-E7
B1: the “T CD8+ lymphocyte response” value is on record as “effective response of T CD8^+ lymphocytes”. In addition, the “number of SFC (IFN-γ secretor cells) relative to the groups immunized with VSSP and PBS” value (splenocytes 7 days after second immunization, FIG. 9) is listed as approximately 8 times.

Values taken from patent US8673313B2, “Cell penetrating peptides and its use fused to biomolecules with therapeutic action” (priority 2007, dated 2014).
